Starred links: 1 amine or outer side, 2 acyl side, 3 side chain; linkers in the order of their positions; H or OH if unused. Positions of bridges follow the written chain, without caps; N, C: chain ends. Non-standard residues stand in square brackets, D forms with d. *: point of attachment. C18 diacid = O=C(O)CCCCCCCCCCCCCCCCC(=O)*; γGlu = O=C(O)[C@H](CCC(=O)[*:2])N[*:1]; Orn = NCCC[C@H](N)C(=O)O; AEEA = NCCOCCOCC(=O)O
Biological target: T1, human amylin 3(a) receptor (human calcitonin receptor co-expressed with RAMP-3) (human, UniProt P30988 25-474; O60896 24-148)
T1 sequence (looked up) 1: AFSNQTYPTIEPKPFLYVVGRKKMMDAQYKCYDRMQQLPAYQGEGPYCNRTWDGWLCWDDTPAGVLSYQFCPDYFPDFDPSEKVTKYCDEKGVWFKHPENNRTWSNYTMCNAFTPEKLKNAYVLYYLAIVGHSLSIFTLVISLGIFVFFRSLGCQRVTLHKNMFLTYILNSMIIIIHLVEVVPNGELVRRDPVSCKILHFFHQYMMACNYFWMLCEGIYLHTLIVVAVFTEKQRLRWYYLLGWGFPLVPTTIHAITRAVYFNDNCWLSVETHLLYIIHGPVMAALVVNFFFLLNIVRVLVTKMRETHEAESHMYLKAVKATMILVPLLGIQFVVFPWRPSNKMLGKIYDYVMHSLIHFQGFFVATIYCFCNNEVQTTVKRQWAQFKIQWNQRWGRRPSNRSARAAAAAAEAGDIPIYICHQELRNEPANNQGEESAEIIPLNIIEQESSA
T1 sequence (looked up) 2: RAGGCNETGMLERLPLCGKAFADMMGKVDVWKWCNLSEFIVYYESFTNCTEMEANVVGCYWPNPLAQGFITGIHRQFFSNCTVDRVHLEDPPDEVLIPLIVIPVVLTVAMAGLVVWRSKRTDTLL
Assay: cell-based or functional assay

## {C18 diacid-γGlu-AEEA-AEEA}-[dR][dR][Orn]CNTATCATQRLAEFLHRSSNNFGPILPPTNVGSNTY-NH2 (disulfide 4-9 (inferred))
  Amylin receptor human EC50 (pM): 29.5 pM

Reference: patent US20130005646A1 (Novo Nordisk, published 2013)
